From paper PMC3469418 (2012)
Where two headings read alike, the source gives them in different places.

Key:
Test in all cases: SPR
[1] = biological target: RPL12 peptide dimethylated on lysine 3 (D. melanogaster, UniProt Q9W1B9, dimethyl-lysine at 3 (K3me2))
[2] = biological target: T1, RPL12 unmodified peptide (D. melanogaster, UniProt Q9W1B9)
[3] = biological target: T2, RPL12 peptide trimethylated on lysine 3 (D. melanogaster, UniProt Q9W1B9, trimethyl-lysine at 3 (K3me3))
[4] = biological target: T1, RPL12 unmodified peptide; remark: listed apart in the source
[5] = biological target: T2, RPL12 peptide trimethylated on lysine 3; remark: listed apart in the source

Binder	Kd [1]	koff [1]	Kd [2]	koff [2]	koff [3]	Kd [4]	Kd [5]
GST-CortoCD (Corto chromodomain fused to GST) (domain or fragment) TASSNSNAAPAPSPQKDYSIPLHVDCSVEYELPNQPKPPAGQRVEPLLMIHPCYFRKMESQRRSPFVNNMHATARAV	238 µM	0.00099 s⁻¹	624 µM	0.00076 s⁻¹	0.00082 s⁻¹		
GST-HP1CD (HP1 chromodomain fused to GST) (domain or fragment) not shown						> 1 mM	292 µM
